Where two headings read alike, the source gives them in different places.
B1: BMP-2 (bone morphogenetic protein-2, Peprotech) (ligand)
chain: QAKHKQRKRLKSSCKRHPLYVDFSDVGWNDWIVAPPGYHAFYCHGECPFPLADHLNSTNHAIVQTLVNSVNSKIPKACCVPTELSAISMLYLDENEKVVLKNYQDMVVEGCGCR
B2: PDGF-BB (murine wild-type platelet-derived growth factor-BB) (ligand)
chain: SLGSLAAAEPAVIAECKTRTEVFQISRNLIDRTNANFLVWPPCVEVQRCSGCCNNRNVQCRASQVQMRPVQVRKIEIVRKKPIFKKATVTLEDHLACKCETIVTPRPVT

Key:
Experiment in all cases: ELISA
[1] = molecular target: T1, human plasma fibronectin (human, UniProt P02751 32-2296)
[2] = molecular target: T2, human fibrinogen (human, UniProt P02671 20-644; P02675 31-491; P02679 27-437)
T2 chain 1: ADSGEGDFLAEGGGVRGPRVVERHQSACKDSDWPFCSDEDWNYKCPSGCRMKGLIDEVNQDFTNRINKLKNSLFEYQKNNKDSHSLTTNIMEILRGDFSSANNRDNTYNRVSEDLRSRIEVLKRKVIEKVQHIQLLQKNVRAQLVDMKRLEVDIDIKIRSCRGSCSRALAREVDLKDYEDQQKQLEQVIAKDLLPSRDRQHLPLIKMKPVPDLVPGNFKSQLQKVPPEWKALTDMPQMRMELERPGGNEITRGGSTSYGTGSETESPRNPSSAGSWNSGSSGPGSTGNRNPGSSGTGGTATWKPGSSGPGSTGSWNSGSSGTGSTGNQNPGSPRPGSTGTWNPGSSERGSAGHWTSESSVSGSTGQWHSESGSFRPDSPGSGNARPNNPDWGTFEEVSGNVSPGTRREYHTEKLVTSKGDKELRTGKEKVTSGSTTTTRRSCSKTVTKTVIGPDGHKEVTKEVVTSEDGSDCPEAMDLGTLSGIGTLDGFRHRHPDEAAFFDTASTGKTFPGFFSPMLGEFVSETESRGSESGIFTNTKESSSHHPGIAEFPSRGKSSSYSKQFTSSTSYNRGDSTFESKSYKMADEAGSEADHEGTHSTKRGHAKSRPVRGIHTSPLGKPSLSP
T2 chain 2: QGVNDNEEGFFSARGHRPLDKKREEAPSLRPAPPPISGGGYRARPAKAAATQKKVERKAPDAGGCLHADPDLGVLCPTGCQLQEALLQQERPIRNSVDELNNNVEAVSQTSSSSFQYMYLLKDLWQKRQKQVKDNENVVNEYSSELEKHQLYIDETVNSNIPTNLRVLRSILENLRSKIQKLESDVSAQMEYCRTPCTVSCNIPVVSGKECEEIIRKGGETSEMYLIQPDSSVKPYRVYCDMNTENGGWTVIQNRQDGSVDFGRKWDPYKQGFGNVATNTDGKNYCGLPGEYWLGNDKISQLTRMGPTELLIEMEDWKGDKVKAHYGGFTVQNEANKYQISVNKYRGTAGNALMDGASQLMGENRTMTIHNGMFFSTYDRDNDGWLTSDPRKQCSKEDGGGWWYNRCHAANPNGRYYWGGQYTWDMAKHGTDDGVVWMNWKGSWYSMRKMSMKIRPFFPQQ
T2 chain 3: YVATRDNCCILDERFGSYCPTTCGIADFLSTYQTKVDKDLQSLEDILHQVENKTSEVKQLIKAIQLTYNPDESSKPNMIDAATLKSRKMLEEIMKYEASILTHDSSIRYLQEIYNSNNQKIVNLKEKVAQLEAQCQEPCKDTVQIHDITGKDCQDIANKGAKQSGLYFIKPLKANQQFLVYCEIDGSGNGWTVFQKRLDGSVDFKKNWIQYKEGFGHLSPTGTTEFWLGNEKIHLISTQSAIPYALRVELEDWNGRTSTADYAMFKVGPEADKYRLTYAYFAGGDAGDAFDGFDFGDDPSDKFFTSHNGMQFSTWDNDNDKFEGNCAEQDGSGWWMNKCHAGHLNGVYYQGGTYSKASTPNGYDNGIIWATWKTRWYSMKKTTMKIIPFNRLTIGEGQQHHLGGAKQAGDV

[3] = molecular target: human tenascin C (human, UniProt P24821 23-2201)
[4] = molecular target: T3, human vitronectin (human, UniProt P04004 20-478)
T3 chain: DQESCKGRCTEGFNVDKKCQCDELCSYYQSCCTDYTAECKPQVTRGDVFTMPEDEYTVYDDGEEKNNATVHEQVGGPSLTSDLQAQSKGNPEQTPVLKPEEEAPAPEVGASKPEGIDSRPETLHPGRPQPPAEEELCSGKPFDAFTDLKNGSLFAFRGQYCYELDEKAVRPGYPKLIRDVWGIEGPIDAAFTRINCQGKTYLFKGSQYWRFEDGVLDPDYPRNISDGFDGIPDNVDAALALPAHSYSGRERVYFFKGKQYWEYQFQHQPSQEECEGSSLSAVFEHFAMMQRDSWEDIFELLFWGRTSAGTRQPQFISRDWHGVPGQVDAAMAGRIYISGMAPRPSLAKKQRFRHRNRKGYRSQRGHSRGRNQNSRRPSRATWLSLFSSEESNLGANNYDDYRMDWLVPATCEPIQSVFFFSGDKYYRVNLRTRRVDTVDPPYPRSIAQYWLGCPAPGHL

[5] = molecular target: T1, human plasma fibronectin; remark: listed apart in the source
[6] = molecular target: T3, human vitronectin

T1 sequence (P02751 other isoform, or with tags, fused parts or gaps): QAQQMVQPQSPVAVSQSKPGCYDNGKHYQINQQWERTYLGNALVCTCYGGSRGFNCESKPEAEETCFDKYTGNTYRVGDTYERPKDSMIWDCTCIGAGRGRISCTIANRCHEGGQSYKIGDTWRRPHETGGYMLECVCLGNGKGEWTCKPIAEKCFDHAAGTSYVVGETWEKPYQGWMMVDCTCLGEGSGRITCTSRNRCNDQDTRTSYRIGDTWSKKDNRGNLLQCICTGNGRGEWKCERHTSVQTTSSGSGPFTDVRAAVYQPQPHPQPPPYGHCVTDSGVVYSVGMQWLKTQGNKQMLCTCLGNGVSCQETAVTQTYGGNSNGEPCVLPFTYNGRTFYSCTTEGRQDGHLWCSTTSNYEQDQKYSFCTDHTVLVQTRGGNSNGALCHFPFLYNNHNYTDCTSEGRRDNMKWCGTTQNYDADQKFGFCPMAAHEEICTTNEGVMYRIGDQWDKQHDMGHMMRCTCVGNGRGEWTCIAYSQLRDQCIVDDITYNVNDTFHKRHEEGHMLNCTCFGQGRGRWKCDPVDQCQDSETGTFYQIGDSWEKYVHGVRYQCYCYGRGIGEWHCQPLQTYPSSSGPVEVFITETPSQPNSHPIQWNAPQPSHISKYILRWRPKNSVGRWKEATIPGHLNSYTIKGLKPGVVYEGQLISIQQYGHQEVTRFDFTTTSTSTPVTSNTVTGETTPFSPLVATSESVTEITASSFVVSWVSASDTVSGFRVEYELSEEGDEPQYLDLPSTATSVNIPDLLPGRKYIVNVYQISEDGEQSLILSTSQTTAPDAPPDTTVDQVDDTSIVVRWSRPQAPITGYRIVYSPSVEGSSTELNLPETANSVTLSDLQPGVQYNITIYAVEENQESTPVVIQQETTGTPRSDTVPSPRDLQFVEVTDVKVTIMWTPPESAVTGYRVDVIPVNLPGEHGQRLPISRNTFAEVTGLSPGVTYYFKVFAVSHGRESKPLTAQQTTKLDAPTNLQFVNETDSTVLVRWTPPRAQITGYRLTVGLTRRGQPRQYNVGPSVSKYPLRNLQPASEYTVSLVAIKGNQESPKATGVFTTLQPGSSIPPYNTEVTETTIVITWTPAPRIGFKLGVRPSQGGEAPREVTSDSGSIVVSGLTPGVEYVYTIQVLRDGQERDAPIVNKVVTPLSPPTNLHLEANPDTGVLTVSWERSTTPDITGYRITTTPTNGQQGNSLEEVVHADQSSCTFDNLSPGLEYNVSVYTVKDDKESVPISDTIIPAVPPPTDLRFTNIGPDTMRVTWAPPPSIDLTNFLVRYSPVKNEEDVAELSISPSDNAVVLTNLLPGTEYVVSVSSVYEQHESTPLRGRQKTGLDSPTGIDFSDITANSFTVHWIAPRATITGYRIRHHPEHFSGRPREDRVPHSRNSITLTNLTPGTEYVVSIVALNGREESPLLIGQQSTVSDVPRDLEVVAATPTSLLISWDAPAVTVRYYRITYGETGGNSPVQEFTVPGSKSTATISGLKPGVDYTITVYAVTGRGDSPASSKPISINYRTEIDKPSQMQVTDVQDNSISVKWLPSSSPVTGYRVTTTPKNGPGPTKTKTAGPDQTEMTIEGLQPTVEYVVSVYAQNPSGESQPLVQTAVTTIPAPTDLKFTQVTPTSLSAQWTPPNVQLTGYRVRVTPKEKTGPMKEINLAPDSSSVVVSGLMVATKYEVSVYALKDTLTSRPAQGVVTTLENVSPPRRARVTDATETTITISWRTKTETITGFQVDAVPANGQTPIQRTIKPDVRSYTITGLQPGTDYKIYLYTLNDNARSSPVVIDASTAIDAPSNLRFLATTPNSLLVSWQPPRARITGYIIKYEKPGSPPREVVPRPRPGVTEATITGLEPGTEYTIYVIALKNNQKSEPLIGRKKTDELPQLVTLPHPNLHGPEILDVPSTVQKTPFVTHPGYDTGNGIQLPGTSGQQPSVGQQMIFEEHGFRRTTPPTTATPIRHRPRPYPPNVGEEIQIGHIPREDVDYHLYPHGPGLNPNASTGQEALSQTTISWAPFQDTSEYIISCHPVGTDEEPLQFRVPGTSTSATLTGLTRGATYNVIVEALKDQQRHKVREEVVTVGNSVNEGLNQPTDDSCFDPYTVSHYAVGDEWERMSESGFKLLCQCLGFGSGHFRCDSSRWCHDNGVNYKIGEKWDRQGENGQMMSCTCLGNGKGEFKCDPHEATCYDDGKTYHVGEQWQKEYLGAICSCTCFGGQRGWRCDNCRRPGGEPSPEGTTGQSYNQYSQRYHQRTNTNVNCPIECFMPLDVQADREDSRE
human tenascin C, sequence (P24821 23-2201): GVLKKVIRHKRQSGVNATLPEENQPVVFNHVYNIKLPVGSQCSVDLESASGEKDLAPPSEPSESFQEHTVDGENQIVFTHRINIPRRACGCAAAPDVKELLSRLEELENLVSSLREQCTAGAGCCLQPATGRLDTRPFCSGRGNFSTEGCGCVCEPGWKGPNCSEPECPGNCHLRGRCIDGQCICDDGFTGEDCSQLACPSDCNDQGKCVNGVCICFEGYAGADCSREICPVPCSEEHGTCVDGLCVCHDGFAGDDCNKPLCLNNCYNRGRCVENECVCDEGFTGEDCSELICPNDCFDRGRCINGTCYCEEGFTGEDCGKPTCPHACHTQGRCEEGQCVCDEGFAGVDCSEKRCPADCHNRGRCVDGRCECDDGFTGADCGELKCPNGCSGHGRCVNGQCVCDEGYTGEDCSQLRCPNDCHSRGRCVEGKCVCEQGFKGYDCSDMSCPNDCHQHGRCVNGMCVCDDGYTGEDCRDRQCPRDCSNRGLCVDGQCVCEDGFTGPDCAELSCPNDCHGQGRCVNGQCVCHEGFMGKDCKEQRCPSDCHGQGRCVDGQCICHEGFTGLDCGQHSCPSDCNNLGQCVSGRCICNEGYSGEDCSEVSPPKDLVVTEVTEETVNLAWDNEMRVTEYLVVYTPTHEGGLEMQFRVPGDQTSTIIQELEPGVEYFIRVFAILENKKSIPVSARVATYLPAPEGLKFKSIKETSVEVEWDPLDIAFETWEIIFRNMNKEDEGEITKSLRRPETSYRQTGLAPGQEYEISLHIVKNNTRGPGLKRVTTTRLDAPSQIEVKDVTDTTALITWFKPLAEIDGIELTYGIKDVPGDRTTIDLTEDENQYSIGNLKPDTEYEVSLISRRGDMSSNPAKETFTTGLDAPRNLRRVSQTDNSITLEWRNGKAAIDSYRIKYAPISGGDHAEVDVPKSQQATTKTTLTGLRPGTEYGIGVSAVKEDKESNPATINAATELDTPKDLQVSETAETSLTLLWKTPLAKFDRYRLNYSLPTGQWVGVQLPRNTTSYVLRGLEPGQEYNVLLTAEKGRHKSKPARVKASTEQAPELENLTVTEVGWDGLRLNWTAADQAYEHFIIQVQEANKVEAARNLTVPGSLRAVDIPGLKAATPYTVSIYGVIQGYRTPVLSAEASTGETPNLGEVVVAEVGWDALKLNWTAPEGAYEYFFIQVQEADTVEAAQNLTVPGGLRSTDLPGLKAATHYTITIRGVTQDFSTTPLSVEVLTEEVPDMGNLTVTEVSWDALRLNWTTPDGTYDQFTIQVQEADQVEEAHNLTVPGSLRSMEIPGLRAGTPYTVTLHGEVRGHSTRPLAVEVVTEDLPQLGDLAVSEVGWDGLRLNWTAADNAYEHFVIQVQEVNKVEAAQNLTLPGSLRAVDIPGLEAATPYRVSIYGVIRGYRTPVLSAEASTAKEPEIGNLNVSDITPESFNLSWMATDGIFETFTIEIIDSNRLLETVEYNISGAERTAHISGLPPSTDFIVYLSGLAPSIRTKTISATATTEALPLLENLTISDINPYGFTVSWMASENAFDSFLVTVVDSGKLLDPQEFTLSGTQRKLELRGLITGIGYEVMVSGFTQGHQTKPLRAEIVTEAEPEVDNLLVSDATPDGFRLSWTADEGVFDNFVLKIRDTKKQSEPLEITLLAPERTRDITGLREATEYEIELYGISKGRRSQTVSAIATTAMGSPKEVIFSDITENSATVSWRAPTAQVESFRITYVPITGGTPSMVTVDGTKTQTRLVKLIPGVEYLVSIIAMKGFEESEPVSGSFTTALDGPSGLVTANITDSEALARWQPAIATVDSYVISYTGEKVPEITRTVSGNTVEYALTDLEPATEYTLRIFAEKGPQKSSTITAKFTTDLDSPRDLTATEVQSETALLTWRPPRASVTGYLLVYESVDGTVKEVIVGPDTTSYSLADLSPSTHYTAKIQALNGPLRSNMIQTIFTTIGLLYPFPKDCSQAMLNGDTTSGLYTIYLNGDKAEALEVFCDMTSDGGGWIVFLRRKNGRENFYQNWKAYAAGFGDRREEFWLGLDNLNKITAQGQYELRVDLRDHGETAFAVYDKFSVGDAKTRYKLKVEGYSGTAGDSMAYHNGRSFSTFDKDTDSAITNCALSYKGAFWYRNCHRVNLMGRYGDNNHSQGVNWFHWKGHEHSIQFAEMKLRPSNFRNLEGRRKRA

Row | Binder | Kd [1] [nM] | Kd [2] [nM] | Kd [3] [nM] | Kd [4] [nM] | Kd [5] [nM] | Kd [6] [nM]
1 | B1 | 49.9 | 46.4 | 19.5 | 12.6 |  | 
2 | B2 |  |  |  |  | 60.2 | 29.8

Reference: patent US20230272045A1 (published 2023)
